Consider 167 variants from the Human Domainome abundance scans (Beltran et al. 2025).

± gives the uncertainty stated by the source.

First the molecules themselves.
B1: Telomeric repeat-binding factor 2, residues 489 to 542; numbered along this chain, Q15554 (parent)
chain: KQKWTVEESEWVKAGVQKYGEGNWAAISKNYPFVNRTAVMIKDRWRTMKRLGMN

In this data set the parent is B1. Kind of data set: abundance fitness (aPCA) (normalised: wild type 0, dead -1); higher = more abundant; growth selection in yeast, the domain comes from the species named. The settings on record: Homo sapiens.
Take I41R: the abundance fitness is -1.16 ± 0.15. The value for I41N was -0.945 ± 0.15. For I41T, the abundance fitness was -0.786 ± 0.28. For I41V, the abundance fitness is -0.392 ± 0.056.

With I41S, the abundance fitness was -1.13 ± 0.38. Regarding N35Q, the abundance fitness came to 0.215 ± 0.12. Consider N35E, for which the abundance fitness was -0.185 ± 0.11. For N35M, the abundance fitness was -0.555 ± 0.12. Take N35P: the abundance fitness was -1.09 ± 0.34. The value for N35V was -0.643 ± 0.06; that for N35I was -0.758 ± 0.14; that for N35S was -0.27 ± 0.041. Take N35Y: the abundance fitness is -0.375 ± 0.15. As for N35F, the figure is -1.14 ± 0.26.

Turning to N35R, the abundance fitness is -0.317 ± 0.083. As for N35C, the figure is -0.71 ± 0.18; as for N35W, -0.588 ± 0.13; as for N35K, -0.222 ± 0.21. As to N35H, the abundance fitness was -0.277 ± 0.35. As for N35T, the figure is -0.476 ± 0.082; as for N35G, -0.259 ± 0.057; as for A25N, 0.015 ± 0.13. A25D: the abundance fitness stood at 0.472 ± 0.24. As for A25P, the figure is -0.663 ± 0.27. As for A25C, the abundance fitness was -0.091 ± 0.15. Turning to A25Q, the abundance fitness was 0.08 ± 0.1. For A25K, the abundance fitness is -0.448 ± 0.12. The value for A25H was -0.127 ± 0.22; that for A25W was -0.146 ± 0.041. As for A25L, the figure is -0.17 ± 0.065. The value for A25Y was -0.235 ± 0.1; that for A25G was -0.13 ± 0.066; that for A25I was -0.217 ± 0.39.

For A25R, the abundance fitness is -0.373 ± 0.12. Regarding A25M, the abundance fitness was -0.018 ± 0.13. As for A25F, the figure is 0.045 ± 0.13; as for A25E, 0.074 ± 0.11; as for F33M, -0.652 ± 0.08.

On to F33P, for which the abundance fitness was -0.871 ± 0.087.

On to F33Q, for which the abundance fitness is -0.817 ± 0.28.

For F33C, the abundance fitness is -0.899 ± 0.29.

Regarding F33L, the abundance fitness is -0.65 ± 0.09.

With F33D, the abundance fitness was -1.02 ± 0.35. F33V: the abundance fitness is -0.604 ± 0.075. The value for F33N was -0.499 ± 0.43. As for F33T, the figure is -0.826 ± 0.19. As for F33W, the figure is -0.166 ± 0.054; as for F33R, -0.845 ± 0.079; as for F33I, -0.834 ± 0.34. Consider F33K, for which the abundance fitness is -0.715 ± 0.21. With F33H, the abundance fitness was -0.212 ± 0.26. As for F33A, the figure is -0.745 ± 0.061; as for F33S, -0.972 ± 0.2; as for A26Y, -0.288 ± 0.15. Regarding A26S, the abundance fitness is -0.068 ± 0.053.

As to A26G, the abundance fitness is -0.792 ± 0.11. The value for A26K was -0.005 ± 0.11; that for A26I was -0.177 ± 0.28; that for A26C was 0.047 ± 0.14. Regarding A26M, the abundance fitness is -0.493 ± 0.28. The value for A26E was -0.18 ± 0.12. Consider A26Q, for which the abundance fitness was determined as 0.078 ± 0.15.

Turning to A26D, the abundance fitness was -0.266 ± 0.14.

Turning to A26L, the abundance fitness is -0.022 ± 0.082. As for A26N, the abundance fitness is -0.656 ± 0.22. With A26T, the abundance fitness stood at 0.065 ± 0.22. For the variant A26V, the abundance fitness is -0.025 ± 0.043.

Turning to A26W, the abundance fitness was -0.545 ± 0.16. The value for N23W was -0.39 ± 0.26; that for N23Y was -0.539 ± 0.28; that for N23V was -0.27 ± 0.092.

With S28Q, the abundance fitness is 0.11 ± 0.13. With S28Y, the abundance fitness is -0.458 ± 0.3. The value for S28I was 0.196 ± 0.14; that for S28V was 0.121 ± 0.076.

Regarding S28C, the abundance fitness is -0.17 ± 0.12.

With S28T, the abundance fitness turned out to be 0.038 ± 0.14. As for S28H, the figure is 0.101 ± 0.23. On to S28N, for which the abundance fitness was 0.163 ± 0.14. Take S28K: the abundance fitness was 0.114 ± 0.068.

For S28D, the abundance fitness is -0.887 ± 0.42.

Regarding S28W, the abundance fitness worked out at 0.036 ± 0.095.

S28M: the abundance fitness was -0.568 ± 0.26.

In the case of S28P, the abundance fitness is -0.726 ± 0.31.

For the variant S28F, the abundance fitness was -0.098 ± 0.11. For the variant S28A, the abundance fitness turned out to be 0.142 ± 0.097.

As to S28G, the abundance fitness was -0.171 ± 0.085. In the case of D43C, the abundance fitness is -0.449 ± 0.091. Consider D43N, for which the abundance fitness was -0.061 ± 0.1. As for D43W, the figure is -0.502 ± 0.073; as for D43R, -0.072 ± 0.074; as for D43Y, -0.364 ± 0.12. As for D43G, the figure is -0.672 ± 0.097; as for D43I, -0.866 ± 0.24.

On to D43F, for which the abundance fitness was -0.68 ± 0.17. The value for D43S was -0.204 ± 0.078. The value for D43Q was -0.07 ± 0.11. As for D43P, the figure is -0.942 ± 0.27. On to D43E, for which the abundance fitness was -0.046 ± 0.056. For D43K, the abundance fitness was found to be 0.011 ± 0.11. Take D43M: the abundance fitness is -0.368 ± 0.083. The value for P32E was -0.611 ± 0.045. As to P32T, the abundance fitness is -0.532 ± 0.042. The value for P32I was -0.774 ± 0.069; that for P32A was -0.327 ± 0.038. As for P32S, the figure is -0.361 ± 0.037; as for P32M, -0.565 ± 0.04. As for P32G, the figure is -0.429 ± 0.037; as for P32K, -0.316 ± 0.039.

Turning to P32Y, the abundance fitness was -0.864 ± 0.068. Consider P32C, for which the abundance fitness was -0.593 ± 0.053. Turning to P32H, the abundance fitness is -0.574 ± 0.043. The value for P32F was -0.746 ± 0.045; that for P32Q was -0.501 ± 0.044; that for P32L was -0.726 ± 0.037. The value for P32R was -0.4 ± 0.042.

Regarding P32N, the abundance fitness is -0.294 ± 0.052. P32V: the abundance fitness is -0.747 ± 0.04. As for V39S, the figure is 0.057 ± 0.049. As for V39E, the figure is 0.008 ± 0.07; as for V39A, 0.091 ± 0.087; as for V39H, -0.442 ± 0.23. The value for V39Y was -0.015 ± 0.11. As for V39I, the abundance fitness was -0.075 ± 0.13.

V39R: the abundance fitness was 0.032 ± 0.061. On to V39M, for which the abundance fitness amounted to 0.1 ± 0.1. As for V39T, the figure is 0.135 ± 0.06; as for V39P, 0.059 ± 0.12; as for V39G, -0.005 ± 0.054. Consider V39N, for which the abundance fitness was determined as 0.253 ± 0.089. As for V39F, the figure is -0.274 ± 0.08; as for V39Q, 0.001 ± 0.087. The value for V39C was 0.203 ± 0.086; that for V39L was -0.154 ± 0.055. The value for M40K was -0.377 ± 0.13.

In the case of M40E, the abundance fitness is 0.17 ± 0.086. As to M40D, the abundance fitness was 0.106 ± 0.057. In the case of M40Y, the abundance fitness is -0.869 ± 0.39. Regarding M40A, the abundance fitness is -0.015 ± 0.058. The value for M40W was 0.066 ± 0.071.

In the case of M40P, the abundance fitness is -0.935 ± 0.1.

In the case of M40H, the abundance fitness is -0.119 ± 0.23. For the variant M40F, the abundance fitness amounted to 0.11 ± 0.12. On to M40R, for which the abundance fitness was -0.663 ± 0.07. The value for M40S was -0.051 ± 0.077; that for M40T was -0.52 ± 0.058; that for M40N was -0.53 ± 0.18. As for M40L, the figure is -0.508 ± 0.057. The value for M40G was -0.406 ± 0.061; that for M40C was 0.169 ± 0.095; that for K42W was -0.653 ± 0.13. With K42P, the abundance fitness is -0.961 ± 0.19. Consider K42Y, for which the abundance fitness was -0.448 ± 0.2.

For the variant K42D, the abundance fitness is -0.457 ± 0.23.

In the case of K42H, the abundance fitness was -0.881 ± 0.42. The value for K42T was -0.614 ± 0.18; that for K42L was -0.571 ± 0.071; that for K42S was -0.16 ± 0.076. With K42R, the abundance fitness is 0.035 ± 0.041.

K42A: the abundance fitness was -0.141 ± 0.065.

For K42N, the abundance fitness was -0.417 ± 0.18. With K42F, the abundance fitness is -0.544 ± 0.27. Regarding K42M, the abundance fitness was -0.207 ± 0.057. As for K42E, the figure is -0.016 ± 0.081.

Turning to K42G, the abundance fitness is -0.309 ± 0.069. As for K42V, the abundance fitness was -0.77 ± 0.082. In the case of K42C, the abundance fitness was -0.124 ± 0.12.
